Positions count from the first letter of the chain named.
B1: FLL116 (VHH)
VHH: QVQLQESGGGLVQAGGSLRLSCAASGVTFSINYIDWYRQAPGKQREWVAQITRDSNSFYADSVKGRFAISRDNAKNTVYLQMNSLKPEDTAVYYCRVLSYWGQGTQVTVSS
notes: llama anti-FLT3 variable domain; E. coli periplasmic extract
B2: FLL14 (VHH)
VHH: B1 VHH with V97L
notes: as for B1
B3: FLL32 (VHH)
VHH: B1 VHH with A23Q, S30N, K43R, N56T, S57R, T77M, M82L, V97I
notes: as for B1
B4: FLL51 (VHH)
VHH: B1 VHH with A14P, V27F, T28D, N32S, K43N, Q44E, D54G, S55G, N56D, V97I
notes: as for B1
B5: FLL77 (VHH)
VHH: B1 VHH with A14P, N32S, K43N, Q44E, D54G, S55G, N56D, V97I
notes: as for B1
B6: FLL97 (VHH)
VHH: B1 VHH with I69V
notes: as for B1
B7: FLL101 (VHH)
VHH: B1 VHH with S84N
notes: as for B1
B8: FLL103 (VHH)
VHH: B1 VHH with A23E, V27P, I69V
notes: as for B1
B9: FLL129 (VHH)
VHH: B1 VHH with I31A, N32S, K43N, Q44E, D54G, S55G, N56D
notes: as for B1
B10: FLL137 (VHH)
VHH: B1 VHH with V27S, S30N, I31N, N32Y, Y33A, I34M, Y37F, N56S
notes: as for B1
B11: FLL146 (VHH)
VHH: B1 VHH with S55D, N56T, S84N, K86R, V97L, Y100F
notes: as for B1
B12: FLL179 (VHH)
VHH: B1 VHH with A23K, S55G, N56S, V97I, Y100D
notes: as for B1
B13: FLL181 (VHH)
VHH: B1 VHH with G16D, I31A, N32S, K43N, Q44E, D54G, S55G, N56D
notes: as for B1
B14: FLL187 (VHH)
VHH: B1 VHH with A14P, D72E
notes: as for B1
B15: FLL107 (VHH)
VHH: QVQLQESGGGLVQAGGSLRLSCAASGRTFSSYAMGWFRQAPGKEREFVAAISWSGSNTYYADSVKGRFTISRDNAKNTVYLQMDSLKPEDTAVYYCAAGGSTRVVVTTTPVVKYWGQGTQVTVSS
notes: as for B1
B16: FLL4 (VHH)
VHH: B15 VHH with G26E, A33T, I51M, S56G, N57S
notes: as for B1
B17: FLL34 (VHH)
VHH: B15 VHH with M34L, S56G, N74D
notes: as for B1
B18: FLL61 (VHH)
VHH: B15 VHH with G26E, S56G, N57S, V111I
notes: as for B1
B19: FLL78 (VHH)
VHH: B15 VHH with L11W, N57S, Q82L
notes: as for B1
B20: FLL141 (VHH)
VHH: B15 VHH with K43M, S56Y, N57S, N74D
notes: as for B1
B21: FLL1 (VHH)
VHH: QVQLQESGGGLVQAGGSLRLSCAASGRTFSTLTVAWFRQAPGKEREFVVASIPSGSNTGYAESVKGRFTISRDIAKNTVYLQMNSLKPEDTAMYFCAARIYFGSSRGYDYWGQGTQVTVSS
notes: as for B1
B22: FLL26 (VHH)
VHH: B21 VHH with S30T, L32Y, V48L, S54T, G59A, D73G, I74N, F95Y, I100T
notes: as for B1
B23: FLL160 (VHH)
VHH: QVQLQESGGGLVQAGDSLRLSCATSGRTFNLYRVGWFRQAPGKEREFVARITWSADITQYADSVKGRFTISRDNAKNTVYLQMNSLKPEDTAIYYCATTLRKSSGIYHVDDYDDWGQGTQVTVSS
notes: as for B1
B24: FLL173 (VHH)
VHH: B23 VHH with D16G, A61T, V109T, D114Y
notes: as for B1
B25: FLL178 (VHH)
VHH: QVQLQESGGGLVQPGGSLRLSCAASGFTFSDYAMSWVRQAPGKGLEWVSGISSGGYKIGYTDSTKGRFTISRDNAKNTLYLQMNSLTAEDTAVYYCAKGTQWSWSLRDNTSRGQGTQVTVSS
notes: as for B1
B26: FLL27 (VHH)
VHH: B25 VHH with A23K, D31S, T87N, S105A, N109S
notes: as for B1
B27: FLL190 (VHH)
VHH: QVQLQESGGGLVQAGGSLTLSCTASGSTFSINHFSWYRQAPGKQRELVAFISSDGVSIDVESVKGRFTISGDNDKNTAYLQMNGLKPEDTAVYYCYYRGFWGQGTQVTVSS
notes: as for B1
B28: FLL43 (VHH)
VHH: B27 VHH with A14P, S35A, V56R, I58T, F100S
notes: as for B1
B29: FLL15 (VHH)
VHH: QVQLQESGGGLVQAGGSLSLSCAASEGTISHAAMGWFRQAPGKERQFVAYDTWTGGSTNYADSVKDRFTITGDHAKNTVYLQMNSLKPEDTGVYYCAVRGRYSASYTYTNPASYKYWGQGTQVTVSS
notes: as for B1
B30: FLL45 (VHH)
VHH: QVQLQESGGGLVQAGGSLRLSCAASGGTFSSSAMGWFRQAPGKEREFVATITQNDVPTYYTHSVKGRFTISRDNAKNTMYLQMNSLKPEDTAVYYCAQRVAQASGWRTTIKDYGYWGQGTQVTVSS
notes: as for B1
B31: FLL39 (VHH)
VHH: QVQLQESGGGLVQAGGSLRLSCAASGLTSSTYRMAWFRQAPGKEREFAAGISYSADSGGSTNYADSVKGRFTISRDNAKNTVYLQMSSLKPEDTAVYYCAAGRYSGTYNSPYSSSYVYWGQGTQVTVSS
notes: as for B1
B32: FLL177 (VHH)
VHH: QVQLQESGGGLVQTGGSLRLSCAASGSTFSRNTMGWFRQAPGKERVFVLGISWSGIRSYYLDSAKARFTISRDNAKNTVYLQMNSLRPEDTAVYYCAAQEGSSPGPYKYWGQGTQVTVSS
notes: as for B1
B33: FLL823 (VHH)
VHH: QVQLQESGGGVVQVGGSLRLSCAASGGTFGYYAVGWFRQAPGKEREFVAAVTWNGAYLYSDPVKGRFTISRDNAKNTVYLQMNSLKSEDTAVYYCGLDRWSAVVESTPSTRGQGTQVTVSS
notes: as for B1
B34: FLL76 (VHH)
VHH: QVQLQESGGGLVQAGGSLRLSCAASGGAFSSYVMGWFRQAPGKEREFVAAVISWSGRITDYADSVKGRFSISRDNAKSTVYLQMNNLKPEDTAVYYCAAKTGMYIDLRTSTFDYWGQGTQVTVSS
notes: as for B1
B35: FLL822 (VHH)
VHH: QVQLQESGGGSVQAGGSLRLSCTASGRTFTDYTMGWFRQAPGKEREFMLGISSNGYRRYYTGSMKDRFTISRDNVKKTVYLQMNDLKPEDTAVYYCAASEDHGAPRYDYWGQGTQVTVSS
notes: as for B1
B36: FLL125 (VHH)
VHH: QVQLQESGGGLVQAGGSLRLSCAASGSTFSRNYIDWYRQAPGKQREWVAQITSGGNTHYEPSLKGRFTISRDNAKNTAYLQMNSLKPEDTAVYYCRILDYWGQGTQVTVSS
notes: as for B1
B37: FLL21 (VHH)
VHH: B36 VHH with A14P, R19T
notes: as for B1
B38: FLL55 (VHH)
VHH: B36 VHH with G54A
notes: as for B1

Biological target: T1, human FLT3 protein (human, UniProt P36888 27-541, limits assumed)
T1 construct: protein coated in the screening ELISA; also called ELISA FLT3
Experiment: colorimetric ELISA, periplasmic extract
Text: (§1) Llamas were immunized with purified FLT3 protein expressed in Expi293 cells. A phage display library for expression of heavy variable antibody domains was constructed from circulating B cells isolated from the immunized llamas (See van der Linden, de Geus, Stok, Bos, van Wassenaar, Verrips, and Frenken. 2000. J Immunol Methods 240:185-195). Phage clones were screened for binding to FLT3 by expressing llama anti-FLT3 proteins in E. coli, preparing periplasmic extracts, and performing colorimetric ELISAs.

| Binder | ELISA FLT3 (absorbance) |
| --- | --- |
| B1 | 1.1 |
| B2 | 1.8 |
| B3 | 1.6 |
| B4 | 2.9 |
| B5 | 4 |
| B6 | 1.4 |
| B7 | 1.7 |
| B8 | 3.8 |
| B9 | 2.6 |
| B10 | 1.8 |
| B11 | 0.9 |
| B12 | 3.7 |
| B13 | 3.2 |
| B14 | 1.9 |
| B15 | 3.8 |
| B16 | 3.7 |
| B17 | 4 |
| B18 | 3.9 |
| B19 | 4 |

| Binder | ELISA FLT3 (absorbance) |
| --- | --- |
| B20 | 4 |
| B21 | 3.4 |
| B22 | 2.9 |
| B23 | 0.7 |
| B24 | 0.5 |
| B25 | 4 |
| B26 | 4 |
| B27 | 4 |
| B28 | 2 |
| B29 | 2.5 |
| B30 | 4 |
| B31 | 1.9 |
| B32 | 4 |
| B33 | 3.6 |
| B34 | 0.5 |
| B35 | 4 |
| B36 | 2.1 |
| B37 | 3.3 |
| B38 | 2 |

Biological target: T1, human FLT3 protein
Experiment: colorimetric ELISA, signal over control wells lacking FLT3
Text: as §1

| Binder | FLT3/control [ratio] |
| --- | --- |
| B1 | 5 |
| B2 | 5 |
| B3 | 5 |
| B4 | 16 |
| B5 | 22 |
| B6 | 7 |
| B7 | 3 |
| B8 | 28 |
| B9 | 9 |
| B10 | 8 |
| B11 | 4 |
| B12 | 17 |
| B13 | 5 |
| B14 | 18 |
| B15 | 11 |
| B16 | 43 |
| B17 | 39 |
| B18 | 25 |
| B19 | 27 |

| Binder | FLT3/control [ratio] |
| --- | --- |
| B20 | 28 |
| B21 | 11 |
| B22 | 4 |
| B23 | 9 |
| B24 | 6 |
| B25 | 48 |
| B26 | 10 |
| B27 | 43 |
| B28 | 12 |
| B29 | 31 |
| B30 | 28 |
| B31 | 12 |
| B32 | 54 |
| B33 | 4 |
| B34 | 5 |
| B35 | 17 |
| B36 | 17 |
| B37 | 20 |
| B38 | 6 |
